In the supplement of paper PMC12042874 one finds amyloid nucleation score data, which are given here for 139 substances.

± gives the uncertainty stated by the source.

A short description of this data set: amyloid nucleation score (Sup35N fusion, yeast selection) (log enrichment); library NNK1; higher = more nucleation; inactive = no reads after selection. A digest of the protocol:
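Psi-negative yeast expressed Sup35N fused to peptides of 20 random codons. They were induced 24 hours with 100 μM copper sulfate, grown 7 days at 30°C without adenine and uracil, and their plasmid inserts from input and output were Illumina-sequenced. The nucleation score is the DiMSum log enrichment of output over input reads, centred on the mode score of non-aggregating sequences. Sequences with under 100 input reads were excluded.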
RDTTTT gave an amyloid nucleation score of 0.088 ± 0.33.

Take REDKYHIVVT: the amyloid nucleation score is -0.275 ± 0.28. The entry for REGWLITWRFNSW is “inactive”; for RERIECDWTGLAFGDPKVSV it is -0.646 ± 2.1.

RESGMTMHVVPQPLDTKTWC showed an amyloid nucleation score of 0.612 ± 0.72. RETYLALRRYSDLTFINRTL yielded an amyloid nucleation score of 1.21 ± 0.29. The value for REYETWLQSQRQNLSDLQK was 0.173 ± 0.33; that for RFAAFIEQGFTTKK was 1.87 ± 0.14; that for RFCRHEMVFVLDLNTYISVP was 0.887 ± 0.26. RFCSKRMRVLIFFGLV: the amyloid nucleation score was -0.165 ± 0.34. In the case of RFDSFAMVYDNMWVRCLNVR, the amyloid nucleation score was -0.303 ± 0.53. Substance RFDYGGIESGVAGCVRVRDY showed an amyloid nucleation score of 0.473 ± 0.67.

As for RFFPLVLGSLKYM, the amyloid nucleation score is 0.827 ± 0.7. The figure for RFFPWQPCNPHIMPLIFWMP is 0.692 ± 0.82. In turn, RFGWISMYSCSRWHCMRNLY returned an amyloid nucleation score of 1.13 ± 0.19. In turn, RFIVM gave an amyloid nucleation score of 0.304 ± 0.78. The figure for RFLGIRTATMDMGSKERMWV is 0.601 ± 0.44. Substance RFLRAPGLCSVCSCE showed an amyloid nucleation score of -0.729 ± 0.85. The value for RFLVFC was “inactive”; that for RFNREFMSSSVLRSWNDGYG was -0.635 ± 0.62; that for RFRKHRFVVLLCYWCLVFRE was 0.766 ± 1.2. The value for RFSSQTFY was -1.08 ± 2.4; that for RFSWMQLWCECVLHY was -0.162 ± 0.3; that for RFTLCCRMNGLVRYMSEN was “inactive”. The figure for RFWAACSFTDGR is 1.71 ± 0.13. On to RFYTYQNDVAGSDDKFSMLC, for which the amyloid nucleation score was -0.232 ± 0.24. Turning to RGCRSCAFLIPGLVLCWWKE, the amyloid nucleation score was 0.069 ± 0.62. Consider RGDLTPDARSYGPCSIHRWR, for which the amyloid nucleation score result was “inactive”. The figure for RGFLRRHGGKGFNVLQAVGR is 1.16 ± 0.72; for RGIAVWCTN it is 0.286 ± 0.97. The value for RGLQNCASSTVRESGR was 0.009 ± 1. In turn, RGNLGLDLWICSGYRMVMFQ yielded an amyloid nucleation score of -0.784 ± 0.3. With RGRPLLGRMRFSSAGRAAFW, the amyloid nucleation score was -0.418 ± 1.5. The value for RGSKVFSSDALVSRLARRVG was -0.462 ± 0.5; that for RGSWIPVKQRLKVPQRDGLG was 0.207 ± 0.28; that for RGVYNDSMERMPDNCSFYNK was -0.641 ± 1.5. The value for RGYLMHMTVAKILSVVKKRA was -2.16 ± 2.7.

Turning to RHGKASSSEWNAYRARDRGV, the amyloid nucleation score came to 0.761 ± 0.82.

RHIVFDRPSISFWLKSRKRR gave an amyloid nucleation score of 0.501 ± 0.64.

RHLLSSYRGFLLEQVSASNS: the amyloid nucleation score turned out to be 1.51 ± 0.38. The figure for RHVNEAESAGEGTGNYSRYS is -0.206 ± 0.41; for RICLLRRGVCTHNVDMVVMY it is -0.873 ± 0.68; for RIDLGQTVFMVKYIAA it is 0.122 ± 0.17.

For the substance RIEHISQRQCMTFSIVTVVN, the amyloid nucleation score is -0.49 ± 1.1. In turn, RIFNKDSLGI yielded an amyloid nucleation score of -0.554 ± 0.48. The figure for RIGLWCACMCRATTPVRGIE is -0.317 ± 0.46. The figure for RIIQGFLAM is -0.153 ± 1.4; for RILRCNPLLCRNSACTGIGA it is 0.742 ± 0.75. RIRIFNKKSGMGQRWILVEG: the amyloid nucleation score was -0.006 ± 0.73. The figure for RIRVDVEWSARRPG is 2.19 ± 0.17; for RISLVPRDASPESSTKSSSI it is “inactive”; for RIVQLFSRRNMRCFFIKE it is 3.07 ± 0.09.

Take RIYKSWSFRTLRLPEC: the amyloid nucleation score was determined as 2.25 ± 0.1. In turn, RIYRHIIVTGDNII registered an amyloid nucleation score of 2.57 ± 0.56. The value for RIYTTWGHYDNDHQIYLFRG was -0.601 ± 0.36; that for RIYTYSNCVGLKLAFTFAYR was 0.642 ± 0.36; that for RKCWGSKEGVKKT was -0.62 ± 0.39. RKDRLTIGNRNL returned an amyloid nucleation score of 0.73 ± 0.69. In the case of RKEISGLMVLLEANLVTWFV, the amyloid nucleation score was -0.085 ± 0.3.

RKHIRYTLVREIPLKSFSQY displayed an amyloid nucleation score of 0.043 ± 0.28. Turning to RKIEWTVSLRGGRKCYFSGE, the amyloid nucleation score was -0.012 ± 0.3. As to RKRHSDNYRCEVNRS, the amyloid nucleation score was -0.235 ± 0.52. RKSVKRVAKGGNS: the amyloid nucleation score was 3.82 ± 0.14.

Consider RLAFLIDRWVALRNEWRKGV, for which the amyloid nucleation score is -0.791 ± 0.72. The value for RLCASYSKYETFVADARRDG was 0.413 ± 0.19; that for RLCFRASRETFLCNRFNY was “inactive”; that for RLCPTVRVQRLMFFPVCPGP was -0.035 ± 0.42.

Turning to RLCRYLKYRYG, the amyloid nucleation score was found to be 0.839 ± 1.1. RLDCIHNFALNSYFRIGAWG displayed an amyloid nucleation score of -0.215 ± 0.45. The figure for RLDYFLCITYMIDQDRWRIT is -0.254 ± 1.1; for RLFRTLGSDRGLFKEYF it is 0.734 ± 0.84; for RLHPCRVATRPQHYT it is “inactive”. RLLDFMFVGVLLACFGVQRW came in with an amyloid nucleation score of 1.39 ± 0.29. The figure for RLLFLMSWSSVVWINCRVWS is 0.657 ± 0.6. On to RLLSLLINMTVVVWLSRKT, for which the amyloid nucleation score was 2.43 ± 0.25. The value for RLMTASTALGPYTRDLGAYY was -0.089 ± 1.2. In the case of RLMVRGLDGKTFHSFFDSIL, the amyloid nucleation score result was “inactive”.

Turning to RLNHEFFGYKRKTKLAGGLR, the amyloid nucleation score was -0.107 ± 1.2. RLPLHHTCYVIC: the amyloid nucleation score came to 0.468 ± 1.2. With RLPRQYVMG, the amyloid nucleation score was -0.279 ± 0.66. The value for RLRFLNYTDAG was -1.2 ± 1.5; that for RLRNLYLQSFDRLCAVCKGY was 0.197 ± 0.35; that for RLRWI was -0.057 ± 0.23. The value for RLSLAESAPLVNFVSTALGK was -0.168 ± 0.93. In turn, RLSNYFNLECEQIRSYYRYM came in with an amyloid nucleation score of 1.85 ± 0.11. In turn, RLTECSYCCNSDYITHMELL had an amyloid nucleation score of -0.317 ± 0.29. The entry for RLVLILSYYVRWNWGREDN is “inactive”. The value for RLWNSRWFPGNLNCWVKLEW was 0.044 ± 1.1; that for RLYFYGFRDSLWQFNLSEEH was 7.619 ± 0.052; that for RLYKN was 0.161 ± 0.9. Substance RMAKYNFVIISVTDDVRQKC had an amyloid nucleation score of 2.42 ± 0.14. The figure for RMCLDGPITWFDRHK is 2.16 ± 0.15. RMDSRKGTNNKSFSGGLEYR came in with an amyloid nucleation score of -0.366 ± 0.32. On to RMDWWLEERASSSCDEELLT, for which the amyloid nucleation score entry is “inactive”. The value for RMLIDGLSLVVDWRYVVEGG was -0.192 ± 0.31; that for RMMFCVVAESGFQVWEVRSG was -0.502 ± 0.42; that for RMMLVV was -0.181 ± 0.37. On to RMMSGRWFMMWWLLVANRGV, for which the amyloid nucleation score result is “inactive”.

With RMQRNRGYPKVLLDMN, the amyloid nucleation score was -0.472 ± 0.46.

For RMWRYASCHYI, the amyloid nucleation score was found to be 1.73 ± 0.76. The figure for RNCEEGFWRSEQPDHTYKLA is -0.955 ± 0.62; for RNCNNVYFELSVLASFLRVR it is 8.107 ± 0.05; for RNCWGANLFDMWIRKSFR it is 0.067 ± 0.77.

As for RNINLANHGCSSISLVYLPS, the amyloid nucleation score was found to be 2.8 ± 0.21. The value for RNLVWDMNAFKHVFCEDIHY was 0.396 ± 0.69; that for RNLWGCMIWGMRG was 1.83 ± 0.36.

RNQDLLHFLVVGIAVKKYNY: the amyloid nucleation score was -0.598 ± 0.35. Take RNSLNTLSPTARCSVSTFVR: the amyloid nucleation score is 0.562 ± 1.2. The value for RPCFGFLGYNNAV was 0.109 ± 1.4. The value for RPGVGAVRSHSAGRMGGYGD was -0.057 ± 1.7; that for RPGWSHRITENLPFVEKVGP was -0.502 ± 0.7; that for RPTLDVIRNCRVDFAEKGGN was 0.711 ± 0.35. The substance RQMRPLGRGPS yielded an amyloid nucleation score of -0.169 ± 0.84. The value for RQPVRAMHLDISVRWSYWSV was 2.79 ± 0.12; that for RQVPPISGAISWGDSPSNGG was 0.18 ± 1.2; that for RRGGDSMDYNCFSARSRAFM was -0.146 ± 0.71. Regarding RRGRLYSKLCLCRF, the amyloid nucleation score stood at 0.874 ± 0.92. The figure for RRIRFNIRFTTCL is 0.802 ± 0.74; for RRKESYYGSSTYVSTNYAL it is -0.075 ± 0.68.

With RRNVM, the amyloid nucleation score was found to be 0.519 ± 0.25. The value for RRRIEHAALVCV was 0.055 ± 1.1.

Substance RRRYSC gave an amyloid nucleation score of -0.307 ± 0.42. RRSISWNIRSEDLR returned an amyloid nucleation score of 0.85 ± 0.48. RRSQGAYLLNDGVRGIL gave an amyloid nucleation score of -0.057 ± 0.28. The figure for RRSSSFSGIWYVSVGYNASL is -0.316 ± 0.53; for RRVSLH it is 0.416 ± 0.6.

For RRWYTSHLLWGRNISAGDIL, the amyloid nucleation score is -0.221 ± 0.44. The figure for RRYRVLANISS is 0.66 ± 0.49. The value for RRYWVIIIEVAGSRSVETPV was -0.823 ± 0.51; that for RSASAREHNTALRSRPARVG was -0.353 ± 1.7. For the substance RSCLQGFGIFAMAIMD, the amyloid nucleation score was 0.367 ± 0.79. The figure for RSDWFHMCNNT is 2.38 ± 0.089; for RSEELYGQDVQEKSAGPRVS it is -0.089 ± 1.2.

RSEGKNMADS returned an amyloid nucleation score of -0.46 ± 1.1. RSFTCVMDRSDVEVGQCLGS showed an amyloid nucleation score of -0.6 ± 0.77. The value for RSFVLLGFPSY was -0.882 ± 0.66; that for RSGNVAQEMSMHPTWYEWS was 0.954 ± 0.31; that for RSHAIHVYKQLCHRVVFIWL was 1.39 ± 0.46. The value for RSIMWNLFHDF was 0.789 ± 0.51.
